Assay results taken from publication PMC7194074, “A Trichome-Specific, Plastid-Localized Tanacetum cinerariifolium Nudix Protein Hydrolyzes the Natural Pyrethrin Pesticide Biosynthetic Intermediate trans-Chrysanthemyl Diphosphate” (Frontiers in Plant Science, 2020).

System: CC(C)=C[C@@H]1[C@@H](COP(=O)(O)OP(=O)(O)O)C1(C)C
Experiment: purified protein
Conditions: 100 mM Tris pH 7.5, 5 mM MgCl2, CPP 0.1 to 5 μM, 5 min, 1 μM enzyme stated for the general reactions

Substance: TcNudix1 (Tanacetum cinerariifolium)
- Km: 0.137 ± 0.05 µM
